Where no end group is shown, it is not given here.
Assays:
[1] = molecular target: soluble recombinant HLA-DR4 (HLA-DRβ1*04:01) (human); experiment: ELISA; apparent Kd; direct binding of biotin-labeled peptide to DR4 as in the DR-ELISA (72 h), binding reactions set up with 1 µM HLA-DM
[2] = molecular target: soluble recombinant HLA-DR4 (HLA-DRβ1*04:01) (human); experiment: dissociation kinetics (LB3.1 capture, europium-streptavidin time-resolved fluorescence)
[3] = molecular target: soluble recombinant HLA-DR4 (HLA-DRβ1*04:01) (human); experiment: ELISA

In the case of QNSLSTEWSPCSVT (not fully specified (N-terminus)) [biotin-labeled QNT-5 332-345 peptide], the Kd [1] is reported as 714 nM, the half-life [2] is reported as 5.08 h and the half-life with HLA-DM [2] is reported as 1.75 h. For the same binder, the Kd [3] was 504 nM.

QNSYSTEWSPCSVT (not fully specified (N-terminus)) [biotin-labeled QNT-Y peptide (QNT-5 analogue L335Y)] gave a Kd [1] of 35.7 nM, a half-life [2] of 138 h and a half-life with HLA-DM [2] of 43.1 h. The Kd [3] was 25.5 nM.
